The results in this text go back to patent US20250304697A1 (ONECHAIN IMNUNOTHERAPEUTICS S L, published 2025).

Assay [1] concerns the target mCAR-CD1a (murine CAR-CD1a, scFv derived from the NA1/34.HLK clone) expressed on transduced T cells. Put plainly: FACS of mCD1a-CAR-T cells incubated with rCD1a (25 nM by the legend paragraph 24, 200 nM by Example 11 paragraph 349), detection with anti-HIS-APC; UT cells in the same gate 0,2% [cont.) B].
Assay [2] addresses T1, human recombinant protein extracellular domain of CD1a (rCD1a), produced with a 6xHis tag as a dimer with … (human, UniProt P06126 17-300; P61769 21-119).
T1 construct: Used soluble in flow cytometry on CAR-T cells (detected with anti-HIS-APC) and immobilized on CM5 chips in SPR; also called rCD1a-HIS; recombinant protein CD1a; not shown: 6xHis tag
Nature of the assay: SPR, Biacore T-200, rCD1a immobilized on CM5 chip, soluble scFv, 1:1 binding fit, 298 K.

Assay [3] addresses T1, human recombinant protein extracellular …. Put plainly: SPR, ratio of KD against mscFv-CD1a.

As to “human recombinant protein extracellular domain of CD1a (rCD1a), produced with a 6xHis tag as a dimer with b2-microglobulin (hB2M) (from UniProt P06126 17-300; P61769 21-119)”, the % of rCD1a positive bound cells in assay [1] worked out at 23.3%.

B1: h(2)scFv-CD1a: recombinant humanized (H2 version) scFv anti-CD1a with a 6xHis tag, from XtenCHO cells (scFv)
scFv: QVQLQQSGAEVKKPGASVKVSCKASGYAFSTYTMHWVRQAPGQGLEWMGYINPNSASTSYAQKFQGRVTMTADKSTNTAYMELSSLRSEDTAVYYCARGFYTMDYWGQGTLVTVSSGGGGSGGGGSGGGGSGGGGSRDIQMTQSPSSLSASVGDRVTITCQASQDINKYIAWYQFKPGKGPRLLIHYTSTLEPAIPSRFSGSGSGREYTFTISSLQPEDIATYYCLHYDNLPWTFGGGTKVEIKRA
notes: also called hscFv-CD1a; humanized2_scFv-anti-CD1a; not shown: 6xHis tag
As to B1, in assay [2], the Kd came out at 21 nM, the koff came out at 0.0012 s⁻¹ and the on-rate constant (kon) is 56300 M⁻¹ s⁻¹. Besides, in assay [3], the “fold higher affinity than the murine scFv (mscFv-CD1a)” value amounted to 2.4 fold.

B2: mscFv-CD1a: recombinant murine scFv anti-CD1a with a 6xHis tag, from XtenCHO cells (scFv)
scFv: QVQLQQSGAELARPGASVKMSCKASGYAFSTYTMHWVKQRPRQGLEWIGYINPNSASTSYNENFKDKATLTADKSSNTAYMHLSSLTSEDSAVYYCARGFYTMDYWGQGTSVTVSSGGGGSGGGGSGGGGSGGGGSRDIQMTQSPSSLSASLGGKVTITCQASQDINKYIAWYQFKPGKGPRLLIHYTSTLQPAIPSRFSGSGSGREYSFSISNLEPEDIATYYCLHYDNLPWTFGGGTKLEIKRAHHHHHH
For B2, in assay [2], the Kd worked out at 50 nM, the dissociation rate constant (koff) stood at 0.00121 s⁻¹ and the on-rate constant (kon) was 24600 M⁻¹ s⁻¹.
